Laboratory results as given in PMC3852661, “Structural basis of SUFU–GLI interaction in human Hedgehog signalling regulation” (Acta Crystallographica Section D: Biological Crystallography, 2013).

Columns and labels:
GLI1 [1] = assay: Co-immunoprecipitation with GLI1; type: binding; conditions: Cos-7 cell lysates, GLI1-FLAG and Myc-SUFU; four independent experiments
Description: Cos-7 cells were transfected separately with C-terminally FLAG-tagged GLI1 in pCMV5 (Andersson et al., 1989[▶]) and N-terminally Myc-tagged SUFU in pCMV-Script (Stratagene) using Fugene 6 (Roche). 24 h after transfection, the cells were lysed with 50 mM Tris–HCl pH 7.4, 150 mM NaCl, 1% NP-40, 0.25% sodium deoxycholate, 1 mM N-ethylmaleimide (Fluka), 1 mM dithiothreitol and cOmplete Mini protease inhibitors (Roche). Normalized lysates were combined and pre-incubated for 6 h. Co-immunoprecipitation was performed for 16 h using agarose-conjugated anti-FLAG M2 (Sigma–Aldrich) and anti-Myc 9b11 (Cell Signaling) antibodies. The beads were washed three times with 500 µl lysis buffer and the bound protein was eluted by boiling the beads in SDS–PAGE sample buffer and analyzed by Western blotting. Samples were separated by SDS–PAGE, transferred to polyvinylidene fluoride Immobilon-P membranes (Millipore) and probed using anti-Myc 71D10 (Cell Signaling) or anti-Myc 9E10 (Santa Cruz) antibodies and anti-DYKDDDDK tag antibody (Cell Signaling). Similar results were obtained in four independent experiments.

GLI1 [2] = assay: GLI1-induced reporter gene activity in HEK 293 cells; type: cell-based; conditions: transient transfection, HEK 293, 12GLI-RE-TKO-luc luciferase reporter, 48 h
Text: (§1) SUFU variants with mutated IDR regions, the SUFU-Δ, SUFU-SH, SUFU-SH2 and SUFU-IDRfly constructs, were generated by replacing amino acids 279–360 of N-terminally Myc-tagged full-length SUFU in pcDNA3.1 (Invitrogen) with corresponding sequences synthesized at GenScript USA Inc. (Supplementary Table S1a). HEK 293 cells were transfected with a mixture of GLI1-FLAG or Myc-GLI2 (Roessler et al., 2005[▶]; a kind gift from Erich Roessler) and Myc-SUFU constructs together with 12GLI-RE-TKO-luc luciferase reporter (Kogerman et al., 1999[▶]) and pRL-SV40 (Promega) internal control using Fugene 6 or X-tremeGENE 9 (Roche) transfection reagent. Expression assays were carried out for 48 h, followed by luciferase activity measurements using a Dual Luciferase Activity Assay Kit (Promega). To verify the expression levels of transfected SUFU and GLI constructs, aliquots of cell lysates were separated by SDS–PAGE and subjected to immunoblot analysis as above. The densities of the visualized protein bands were quantified using the ImageJ 1.47v image-analysis and image-processing software (Schneider et al., 2012[▶]).

GLI2 = assay: GLI2-induced reporter gene activity in HEK 293 cells; type: cell-based; conditions: transient transfection, HEK 293, 12GLI-RE-TKO-luc luciferase reporter, 48 h
Text: as §1

[3] = tested on: Hh pathway, Sufu −/− MEFs; assay: Constitutive Hh pathway activity in Sufu −/− MEFs; type: cell-based, mouse; conditions: Gli-BS luciferase reporter
Description: Sufu ^−/− mouse embryonic fibroblast (MEF) cells (Svärd et al., 2006[▶]) were transfected with a mixture of p8x3′Gli-BS LucII or p8x3′Gli-mBS LucII reporter constructs (Sasaki et al., 1997[▶]; generous gifts from Hiroshi Sasaki) together with pRL-SV40 (Promega) internal control using Lipofectamine LTX with Plus reagent (Invitrogen) according to the manufacturer’s instructions. Following transfection, Sufu ^−/− MEF cells were grown until the culture reached confluency (24–48 h) and the cells were then switched to low-serum medium (0.5% FBS) with 100–200 nM SAG (kindly provided by Jan Bergman, Karolinska Institutet), 10 µM purmorphamine (Calbiochem) or Shh conditioned medium (1:4) and grown for an additional 48–72 h. Cell lysis and luciferase activity measurements were performed using a Dual Luciferase Activity Assay Kit (Promega). For statistical evaluation of reporter gene assays, a one-tailed paired Student’s t-test was used. All activity measurements were performed at least three times in independent experiments.

[4] = R123C germline mutation; ref Aavikko et al., 2012; cited from earlier work
Text: SUFU is a tumour suppressor protein that is found to be inactivated most frequently (up to 50%) by germline mutations in children below the age of three presenting with medulloblastoma of the desmoplastic/nodular subtype (Slade et al., 2011[▶]; Brugières et al., 2012[▶]), whereas a somatic mutation frequency of about 10% has been reported for sporadic medulloblastomas of the desmoplastic subtype (Taylor et al., 2002[▶]). Moreover, germline or somatic mutations in the SUFU gene have recently been described in association with meningioma and chondrosarcoma (Aavikko et al., 2012[▶]; Kijima et al. ...

[5] = Thermal stability of MBP-SUFU constructs; type: physicochemical; conditions: SYPRO Orange, 2.2 µM protein, no peptide, 50 mM Na HEPES pH 7.0, 50 mM NaCl, 5 mM β-mercaptoethanol; heated 20 to 90°C; triplicate
Description: Recombinant MBP-SUFU proteins were diluted to 2.6 µM in 50 mM Na HEPES pH 7.0, 50 mM NaCl, 5 mM β-mercaptoethanol; the peptides GLI1p and GLI1p-SH (Supplementary Table S1b), synthesized by Dr W. Mawby (University of Bristol), were dissolved in the same buffer. Proteins were spun at 14 000g for 20 min at 4°C before adding SYPRO Orange (Molecular Probes) to a final concentration of 6×. Reaction volumes of 25 µl were prepared in 96-well PCR plates with 2.2 µM protein/SYPRO Orange solution and, where applicable, 44 µM peptide. Plates were sealed with optical tape, heated from 20 to 90°C in 12 s 0.2°C steps in an iCycler and fluorescence was detected using an excitation wavelength of 470 nm and an emission wavelength of 570 nm.
To determine whether the IDR affects the GLI-binding properties of SUFU, we used a human GLI1-derived peptide (GLI1p; residues 115–131; Supplementary Table S1b) containing the highly conserved SYGH motif important for interaction with SUFU (Dunaeva et al., 2003[▶]) in a thermal stability assay with MBP-SUFU-FL and MBP-SUFU-Δ (Fig. 4 ▶ a). The addition of GLI1p stabilized both proteins: T m for MBP-SUFU-FL was shifted by 4°C and that for MBP-SUFU-Δ was shifted by 3.6°C. […] The GLI1 dose dependency of this effect was confirmed in a separate experiment with increasing GLI1p concentrations (Supplementary Fig. S7a).

trypsin = assay: Limited proteolysis with trypsin; type: physicochemical; conditions: 100 mM ammonium bicarbonate, 23°C
Description: SUFU32–484 cloned in pLJMBP6c was expressed in E. coli and purified as described above. The purified protein was digested with trypsin (Sigma–Aldrich) in 100 mM ammonium bicarbonate at 23°C. The protease was inactivated by adding 10 mM PMSF and sample-loading buffer followed by heating at 95°C for 5 min. Protein bands were separated by SDS–PAGE and visualized by Coomassie Blue staining. Proteolytic peptide fragments were identified by N-terminal sequencing (Alphalyse A/S) as well as MALDI–TOF and MALDI–TOF/TOF mass-spectrometric analyses (Ultraflex II and Autoflex III, Bruker Daltonics).

B1: SUFU-FL: full-length SUFU, N-terminally Myc-tagged (protein)
chain: MAELRPSGAPGPTAPPAPGPTAPPAFASLFPPGLHAIYGECRRLYPDQPNPLQVTAIVKYWLGGPDPLDYVSMYRNVGSPSANIPEHWHYISFGLSDLYGDNRVHEFTGTDGPSGFGFELTFRLKRETGESAPPTWPAELMQGLARYVFQSENTFCSGDHVSWHSPLDNSESRIQHMLLTEDPQMQPVQTPFGVVTFLQIVGVCTEELHSAQQWNGQGILELLRTVPIAGGPWLITDMRRGETIFEIDPHLQERVDKGIETDGSNLSGVSAKCAWDDLSRPPEDDEDSRSICIGTQPRRLSGKDTEQIRETLRRGLEINSKPVLPPINPQRQNGLAHDRAPSRKDSLESDSSTAIIPHELIRTRQLESVHLKFNQESGALIPLCLRGRLLHGRHFTYKSITGDMAITFVSTGVEGAFATEEHPYAAHGPWLQILLTEEFVEKMLEDLEDLTSPEEFKLPKEYSWPEKKLKVSILPDVVFDSPLH
modifications: left off: Myc, N-terminal, kept
notes: full-length SUFU, N-terminally Myc-tagged
For B1, the “GLI1 binding in Co-IP” value (GLI1 [1]) was “no remarkable difference in GLI1 binding”, the “repression of transcriptional activity induced by GLI1” value (GLI1 [2]) was “efficiently repressed” and the “repression of transcriptional activity induced by GLI2” value (GLI2) was “efficiently repressed”. The “suppression of constitutive Hh pathway activity” value [3] was “suppress constitutive pathway activity in Sufu ^−/− cells (c) with similar efficiency”.

B2: R123C: SUFU R123C mutation segregated with tumour development in a family predisposed to meningiomas (protein, UniProt Q9UMX1 1-484, looked up, variant R123C)
Suppressor of fused homolog: MAELRPSGAPGPTAPPAPGPTAPPAFASLFPPGLHAIYGECRRLYPDQPNPLQVTAIVKYWLGGPDPLDYVSMYRNVGSPSANIPEHWHYISFGLSDLYGDNRVHEFTGTDGPSGFGFELTFCLKRETGESAPPTWPAELMQGLARYVFQSENTFCSGDHVSWHSPLDNSESRIQHMLLTEDPQMQPVQTPFGVVTFLQIVGVCTEELHSAQQWNGQGILELLRTVPIAGGPWLITDMRRGETIFEIDPHLQERVDKGIETDGSNLSGVSAKCAWDDLSRPPEDDEDSRSICIGTQPRRLSGKDTEQIRETLRRGLEINSKPVLPPINPQRQNGLAHDRAPSRKDSLESDSSTAIIPHELIRTRQLESVHLKFNQESGALIPLCLRGRLLHGRHFTYKSITGDMAITFVSTGVEGAFATEEHPYAAHGPWLQILLTEEFVEKMLEDLEDLTSPEEFKLPKEYSWPEKKLKVSILPDVVFDSPLH
For B2, the “inhibitory activity in cellular assays” value [4] is given as “reduced inhibitory activity”.

B3: MBP-SUFU-FL: MBP fusion containing residues 32–483 of human SUFU and a C-terminal hexahistidine tag (protein)
chain: PGLHAIYGECRRLYPDQPNPLQVTAIVKYWLGGPDPLDYVSMYRNVGSPSANIPEHWHYISFGLSDLYGDNRVHEFTGTDGPSGFGFELTFRLKRETGESAPPTWPAELMQGLARYVFQSENTFCSGDHVSWHSPLDNSESRIQHMLLTEDPQMQPVQTPFGVVTFLQIVGVCTEELHSAQQWNGQGILELLRTVPIAGGPWLITDMRRGETIFEIDPHLQERVDKGIETDGSNLSGVSAKCAWDDLSRPPEDDEDSRSICIGTQPRRLSGKDTEQIRETLRRGLEINSKPVLPPINPQRQNGLAHDRAPSRKDSLESDSSTAIIPHELIRTRQLESVHLKFNQESGALIPLCLRGRLLHGRHFTYKSITGDMAITFVSTGVEGAFATEEHPYAAHGPWLQILLTEEFVEKMLEDLEDLTSPEEFKLPKEYSWPEKKLKVSILPDVVFDSPL
modifications: left off: MBP, N-terminal, kept | His6, C-terminal, state not stated
notes: MBP fusion containing residues 32–483 of human SUFU and a C-terminal hexahistidine tag
With B3 the Tm [5] was 50.1 °C and the protease-hypersensitive sites (trypsin) was “Several protease-hypersensitive sites were found clustered within residues 299–363”.

B4: MBP-SUFU-Δ: MBP-SUFU with amino acids 279–360 replaced by the heptamer sequence PSRGEDP (protein)
chain: PGLHAIYGECRRLYPDQPNPLQVTAIVKYWLGGPDPLDYVSMYRNVGSPSANIPEHWHYISFGLSDLYGDNRVHEFTGTDGPSGFGFELTFRLKRETGESAPPTWPAELMQGLARYVFQSENTFCSGDHVSWHSPLDNSESRIQHMLLTEDPQMQPVQTPFGVVTFLQIVGVCTEELHSAQQWNGQGILELLRTVPIAGGPWLITDMRRGETIFEIDPHLQERVDKGIETDGSNLSGVSAKCAWDDLPSRGEDPIRTRQLESVHLKFNQESGALIPLCLRGRLLHGRHFTYKSITGDMAITFVSTGVEGAFATEEHPYAAHGPWLQILLTEEFVEKMLEDLEDLTSPEEFKLPKEYSWPEKKLKVSILPDVVFDSPL
modifications: left off: MBP, N-terminal, kept | His6, C-terminal, state not stated
For B4, the Tm [5] was 46.6 °C.
